US20110045489A1, “Polymerases for Incorporating Modified Nucleotides” (NEW ENGLAND BIOLABS, INC., priority 2008, published 2011)
Changes are numbered by the printed parent chain. Names and notes keep the numbering of the source.

B1: 9° N exo-L408P/Y409A/S411T: 9° N DNA polymerase mutant, SEQ ID NO:6 (protein)
chain: MILDTDYITENGKPVIRVFKKENGEFKIEYDRTFEPYFYALLKDDSAIEDVKKVTAKRHGTVVKVKRAEKVQKKFLGRPIEVWKLYFNHPQDVPAIRDRIRAHPAVVDIYEYDIPFAKRYLIDKGLIPMEGDEELTMLAFAIATLYHEGEEFGTGPILMISYADGSEARVITWKKIDLPYVDVVSTEKEMIKRFLRVVREKDPDVLITYNGDNFDFAYLKKRCEELGIKFTLGRDGSEPKIQRMGDRFAVEVKGRIHFDLYPVIRRTINLPTYTLEAVYEAVFGKPKEKVYAEEIAQAWESGEGLERVARYSMEDAKVTYELGREFFPMEAQLSRLIGQSLWDVSRSSTGNLVEWFLLRKAYKRNELAPNKPDERELARRRGGYAGGYVKEPERGLWDNIVYLDFRSPAPTIIITHNVSPDTLNREGCKEYDVAPEVGHKFCKDFPGFIPSLLGDLLEERQKIKRKMKATVDPLEKKLLDYRQRAIKILANSFYGYYGYAKARWYCKECAESVTAWGREYIEMVIRELEEKFGFKVLYADTDGLHATIPGADAETVKKKAKEFLKYINPKLPGLLELEYEGFYVRGFFVTKKKYAVIDEEGKITTRGLEIVRRDWSEIAKETQARVLEAILKHGDVEEAVRIVKEVTEKLSKYEVPPEKLVIHEQITRDLRDYKATGPHVAVAKRLAARGVKIRPGTVISYIVLKGSGRIGDRAIPADEFDPTKHRYDAEYYIENQVLPAVERILKAFGYRKEDLRYQKTKQVGLGAWLKVKGKK
modifications: Thermococcus sp. 9 degrees N DNAP mutant
B2: Mma exo-: exonuclease minus DNA polymerase from Methanococcus maripaludis, SEQ ID NO:22 (protein, listed as Methanococcus maripaludis)
chain: MESLIDLDYNSDDLCIYLYLINSIIKEKDFKPYFYVNSTDKEQILEFLKDYEKKHKLDSEISKMIENIETVKKIVFDENYQEKELSKVTVKYPNNVKTVREILMEFERLYEYDIPFVRRYLIDNSVIPTSTWDFENNKKIDNKIPDFKTVSFAIAVYCNKEPNPKKDPIIMASFSSKDFNTVVSTKKFDHEKLEYVKDEKELIKRIIEILKEYDIIYTYNGDNFDFPYLKKRAESFGLELKLGKNDEKIKITKGGMNSKSYIPGRVHIDLYPIARRLLNLTKYRLENVTEALFDVKKVDVGHENIPKMWDNLDETLVEYSHQDAYYTQRIGEQFLPLEIMFSRVVNQSLYDINRMSSSQMVEYLLLKNSYKMGVIAPNRPSGKEYQKRIRSSYEGGYVKEPLKGIHEDIVSMDFLSLYPSIIMSHNLSPETIDCTCCSDEENGENEEILGHKFCKKSIGIIPKTLMDLINRRKKVKKVLREKAEKGEFDEEYQILDYEQRSIKVLANSHYGYLAFPMARWYSRDCAEITTHLGRQYIQKTIEEAENFGFKVIYADTDGFYSKWADDKEKLSKYELLEKTREFLKNINNTLPGEMELEFEGYFKRGIFVTKKKYALIDENEKITVKGLEVVRRDWSNVSKNTQKNVLNALLKEGSVENAKKVIQDTIKELKDGKVNNEDLLIHTQLTKRIEDYKTTAPHVEVAKKILKSGNRVNTGDVISYIITSGNKSISERAEILENAKNYDTNYYIENQILPPVIRLMEALGITKDELKDSKKQYTLHHFLK
modifications: (1)..(784) Exo-
B3: 9° N D141A/E143A/Y409A/S411T: 9° N DNA polymerase mutant (protein, UniProt Q56366 1-775, looked up, variant D141A E143A Y409A S411T)
DNA polymerase: B1 chain with P408L
B4: 9° N D141A/E143A/Y409A/P410R/S411T: 9° N DNA polymerase mutant (protein, UniProt Q56366 1-775, looked up, variant D141A E143A Y409A P410R S411T)
DNA polymerase: B1 chain with P408L, P410R
B5: 9° N D141A/E143A/L408S/Y409A/P410V/S411T: 9° N DNA polymerase mutant (protein, UniProt Q56366 1-775, looked up, variant D141A E143A L408S Y409A P410V S411T)
DNA polymerase: B1 chain with P408S, P410V
B6: 9° N D141A/E143A/L408P/Y409A/P410V/S411T: 9° N DNA polymerase mutant (protein, UniProt Q56366 1-775, looked up, variant D141A E143A L408P Y409A P410V S411T)
DNA polymerase: B1 chain with P410V
B7: 9° N D141A/E143A/N491L/Y494S: 9° N DNA polymerase mutant (protein, UniProt Q56366 1-775, looked up, variant D141A E143A N491L Y494S)
DNA polymerase: B1 chain with P408L, A409Y, T411S, N491L, Y494S

Legend:
3′-O-azidomethyl-dCTP = assay: Titration assay, incorporation of 3′-O-azidomethyl-dCTP; assay type: biochemical; conditions: for 3′-O-azidomethyl-dCTP incorporation / termination of synthesis: 72° C. (9° N) or 37° C.
Procedure: Reactions were also performed in the absence of terminators to ensure that synthesis by each DNA polymerase was sufficient to extend primers without premature termination (“dNTP” lanes). Reactions with Therminator™ (NEB, Inc., Ipswich, Mass.) and 9° N exo-L408P/Y409A/S411T DNA polymerase (SEQ ID NO:6) were incubated at 72° C. for 30 minutes. Reactions with E. coli Polymerase I (pol I) (NEB, Inc., Ipswich, Mass.), Sequenase™, (USB, Inc., Cleveland, Ohio), Mma exo- and Mma exo-L417P/Y418A/S420T were incubated at 37° C. for 30 minutes. Each band corresponds to a DNA fragment terminated by a 3′-azido-dCMP. Using a titration assay as described in Gardner and Jack (2002), the relative 3′-azido-dCTP incorporation efficiency was determined for a series of DNA polymerases.
Incorporation of 3′-O-azidomethyl-dCTP by various DNA polymerases was measured using the titration assay as described in Example 1. For each reaction, a ratio of either 10:1 or 1:1 3′-O-azidomethyl-dCTP:dNTP was used to generate a termination pattern. Each band corresponded to a DNA fragment terminated by a 3′-azido-dCMP. A control reaction lacking terminator (dNTP) which yielded large extension products gave assurance that the DNA polymerase was active, and that termination products resulted from terminator incorporation rather than incomplete polymerization. Reactions with Therminator™ (NEB, Inc., Ipswich, Mass.) and 9° N exo-L408P/Y409A/S411T DNA polymerase were incubated at 72° C. for 30 minutes. Reactions with E. coli Polymerase I (pol I) (NEB, Inc., Ipswich, Mass.), Sequenase™ (USB, Inc., Cleveland, Ohio), Mma exo- and Mma exo-L417P/Y418A/S420T were conducted at 37° C. for 30 mintues. Therminator™ (NEB, Inc., Ipswich, Mass.) DNA polymerase was assayed with a 1:1 ratio of acyCTP as control.

modified nucleotide = assay: Screen of DNA polymerase mutants for modified nucleotide incorporation; assay type: biochemical
Excerpt: In order to determine the extent of 3′-modified nucleotide incorporation by archaeon DNA polymerases, the titration assay described by Gardner and Jack (2002) was used. In this assay, the efficiency of incorporation of chain terminators was judged by the size of the reaction products in a polymerization reaction. As the efficiency of chain-terminator incorporation increased, the average reaction product size decreased because polymerization was more often halted by terminator addition. By comparing the amount of terminator required to give the same spectrum of reaction products, the relative efficiency of incorporation of the test compounds with the different polymerases was determined.
A complex library of 9° N DNA polymerase mutants was screened for enhanced incorporation of 3′-azido-ddCTP. Several classes of 9° N DNA polymerase mutants were identified with enhanced terminator incorporation. 9° N exo-L408S/Y409A/P410V (Therminator III™, NEB, Inc., Ipswich, Mass.) was purified and characterized in more detail. 9° N DNA polymerase single mutants P410V, L408S, and Y409A and double mutants L408S/P410V, L408S/Y409A, and Y409A/P410V were also purified for comparison. Purification and characterization of DNA polymerase mutants was as described in Gardner and Jack, Nucleic Acids Res. 27:2545-2553 (1999).
A library of 9° N DNA polymerase mutants was constructed by PCR amplification of the polymerase genes using gene-specific primers or codon optimization and gene synthesis Czar et al. Trends Biotechnol 27(2): 63-72 (2009)). The ability to incorporate 3′-modified nucleotide terminators was evaluated by the titration assay for chain terminator incorporation efficiency as described by Gardner and Jack (2002).
Furthermore, the same assay was used to measure 3′-amino-ddCTP incorporation by 9° N exo-L408S/Y409A/P410V (FIG. 3) and to measure rates of incorporation (FIG. 4). Examples of mutants that increased modified nucleotide incorporation by at least two-fold were: […]

[1] = 10:1 or 1:1 3′-O-azidomethyl-dCTP:dNTP, 30 minutes

Row | Molecule | 3′-O-azidomethyl-dCTP incorporation / termination of synthesis (3′-O-azidomethyl-dCTP; [1]) | increase of modified nucleotide incorporation (modified nucleotide) | other results
1 | E. coli DNA polymerase I (pol I): commercial E. coli DNA polymerase I (NEB, Inc.) [reference compound] | failed to terminate synthesis |  | 
2 | B1 | incorporated 3′-O-azidomethyl-dCTP efficiently | at least two-fold | effect of the mutations on 3′-O-azidomethyl-dCTP incorporation (3′-O-azidomethyl-dCTP; versus parent exo- polymerase): increased 3′-O-azidomethyl-dCTP incorporation
3 | B2 | failed to terminate synthesis |  | relative 3′-O-azidomethyl-dCTP incorporation efficiency, rank order (3′-O-azidomethyl-dCTP; 10:1 or 1:1 3′-O-azidomethyl-dCTP:dNTP, 72° C. or 37° C., 30 minutes, FIG. 8): greater than Sequenase™
4 | B3 |  | at least two-fold | 
5 | B4 |  | at least two-fold | 
6 | B5 |  | at least two-fold | 
7 | B6 |  | at least two-fold | 
8 | B7 |  | at least two-fold | 
